Results published in US12570711B2, “Platforms for co-stimulation, novel car designs and other enhancements for adoptive cellular therapy” (Angeles Therapeutics, Inc., priority 2017, dated 2026).

T1: human MPL (Homo sapiens, UniProt P40238)
T1 construct: endogenous in cells; host or cells: HEL-92.1.7 (HEL) cells
T1 sequence (P40238 26-635): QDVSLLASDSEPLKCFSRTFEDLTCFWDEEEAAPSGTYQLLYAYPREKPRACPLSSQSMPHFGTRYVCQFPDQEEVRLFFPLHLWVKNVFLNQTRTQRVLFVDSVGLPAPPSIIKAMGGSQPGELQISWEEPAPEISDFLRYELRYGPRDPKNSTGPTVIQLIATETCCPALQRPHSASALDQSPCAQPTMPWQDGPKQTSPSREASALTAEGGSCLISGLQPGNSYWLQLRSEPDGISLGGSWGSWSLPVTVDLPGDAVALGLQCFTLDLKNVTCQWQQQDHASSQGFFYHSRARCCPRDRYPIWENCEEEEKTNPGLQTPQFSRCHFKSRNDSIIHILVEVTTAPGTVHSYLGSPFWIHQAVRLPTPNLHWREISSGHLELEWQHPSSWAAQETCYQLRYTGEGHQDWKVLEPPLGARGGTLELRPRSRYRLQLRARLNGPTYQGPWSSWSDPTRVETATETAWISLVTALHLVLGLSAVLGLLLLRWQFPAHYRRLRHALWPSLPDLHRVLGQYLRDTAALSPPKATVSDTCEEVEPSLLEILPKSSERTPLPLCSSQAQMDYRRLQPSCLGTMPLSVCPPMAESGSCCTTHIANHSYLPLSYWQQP

T2: CD19 (Homo sapiens, UniProt P15391)
T2 construct: endogenous in cells; host or cells: RAJI cells in vitro
T2 sequence (P15391 20-556): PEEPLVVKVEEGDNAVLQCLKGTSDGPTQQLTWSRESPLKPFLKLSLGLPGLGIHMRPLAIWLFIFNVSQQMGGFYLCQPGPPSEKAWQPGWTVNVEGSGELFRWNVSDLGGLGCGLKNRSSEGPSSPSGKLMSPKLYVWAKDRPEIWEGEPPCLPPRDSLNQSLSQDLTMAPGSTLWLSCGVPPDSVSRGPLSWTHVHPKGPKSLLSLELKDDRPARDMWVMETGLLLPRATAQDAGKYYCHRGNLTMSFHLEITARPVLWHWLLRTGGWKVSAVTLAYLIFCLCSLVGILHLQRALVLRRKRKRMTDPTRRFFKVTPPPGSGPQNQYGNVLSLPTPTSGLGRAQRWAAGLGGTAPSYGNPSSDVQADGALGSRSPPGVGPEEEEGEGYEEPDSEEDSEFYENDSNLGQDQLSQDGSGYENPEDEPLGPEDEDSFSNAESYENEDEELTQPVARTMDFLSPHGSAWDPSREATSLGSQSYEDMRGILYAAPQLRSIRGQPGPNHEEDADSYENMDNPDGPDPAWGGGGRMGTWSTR


Tests used:
[1] = target: T1, human MPL; assay: Jurkat-NFAT-EGFP (J-N-G) reporter: EGFP induction upon co-culture with HEL cells; type: cell-based; conditions: 4 h
Description: (§1) Jurkat cell line (clone E6-1) engineered with a NFAT-dependent EGFP (or GFP) reporter gene was a gift from Dr. Arthur Weiss at University of California San Francisco and have been described to study CAR-signaling ((Wu, C Y et al., Science 350:293-302, 2015). Jurkat cells were maintained in RPMI-1640 medium supplemented with 10% FBS, penicillin and streptomycin.
The murine monoclonal antibody 161 targets human MPL (Thrombopoietin receptor o TPO-R). To generate a CAR targeting MPL but with reduced immunogenicity, sequence of the scFV fragment comprising the antigen binding domain of the murine 161 antibody was humanized. […] Jurkat-NFAT-EGFP (J-N-G) cells were stably transduced with the lentivirus encoding the humanized MPL-hu-161-2 CAR construct. The parental and CAR-expressing Jurkats were subsequently cocultured with HEL cells and induction of EGFP expression monitored by FACS analysis after 4 h.
The murine monoclonals 175 and 111 also bind human MPL. […] The experiment is repeated as in the preceding example.
The sequence of these TFP CAR constructs is shown in SEQ ID NO: 3526 to 3533. […]
Several Ab-TCR are constructed targeting MPL based on murine 161 scFV as the antigen binding domain. […] T cells expressing MPL Ab-TCRs are shown to induce lysis of HEL-GLuc cells as measured by increase in GLuc activity. […]

[2] = target: T2, CD19; assay: Jurkat-NFAT-EGFP (J-N-G) reporter: EGFP induction upon co-culture with RAJI cells; type: cell-based; conditions: co-culture with CD19+ve RAJI cells, compared to wild-type EF1α promoter
Description: as §1
Use of strong viral promoters in adoptive cellular therapy applications carries the risk of activation of downstream oncogenes and development of cancer. As such, human Elongation Factor 1α (EF1α) promoter is frequently used in adoptive cellular therapy applications as it provides strong expression and is human in origin. A limitation of EF1α promoter, however, is its relatively large size. Although a mini-EF1α promoter has been described, it is much weaker as compared to the EF1α promoter. To determine whether an internal deletion in the EF1α promoter would allow shortening of its length while preserving its promoter strength, a SacII fragment was deleted from the EF1α promoter. […] The vectors also co-expressed EGFP and blasticidin resistance gene via 2A linkers. Lentiviruses were generated in 293FT cells and used to infect J-N-G cells.

Molecule | EGFP expression [1] | induction of EGFP expression by FMC63-BBz CAR [2]
MPL-hu-161-2: 2nd generation CAR (41BB, CD3z) with humanized 161 scFv hu-161-2 targeting human MPL (protein, Synthetic Polynucleotide encoding a CAR with optional accessory module(s)) MALPVTALLLPLALLLHAARPDVVMTQSPSSLSASVGDRVTITCMASEDIYIRLAWYQQKPGNAPKLLIYAATSLETGVPSRFSGSGSGTDFTLTISSLQPEDFATYYCQQYWSSPWTFGGGTKVEIKGGGGSGGGGSGGGGSQVQLQESGPGLVKPSQTLSLTCTVSGYSITSDYTWNWIRQPPGNGLEWIGYITYSGSTSYNPSLKSRVLISVDTSKNQVSLKLSSVTAADTAVYYCARLGRRYTMDYWGQGTTVTVSSTREQKLISEEDLAKPTTTPAPRPPTPAPTIASQPLSLRPEACRPAAGGAVHTRGLDFACDIYIWAPLAGTCGVLLLSLVITLYCKRGRKKLLYIFKQPFMRPVQTTQEEDGCSCRFPEEEEGGCELRVKFSRSADAPAYQQGQNQLYNELNLGRREEYDVLDKRRGRDPEMGGKPRRKNPQEGLYNELQKDKMAEAYSEIGMKGERRRGKGHDGLYQGLSTATKDTYDALHMQALPPRSSGSGEGRGSLLTCGDVEENPGPHMTEYKPTVRLATRDDVPRAVRTLAAAFADYPATRHTVDPDRHIERVTELQELFLTRVGLDIGKVWVADDGAAVAVWTTPESVEAGAVFAEIGPRMAELSGSRLAAQQQMEGLLAPHRPKEPAWFLATVGVSPDHQGKGLGSAVVLPGVEAAERAGVPAFLETSAPRNLPFYERLGFTVTADVEVPEGPRTWCMTRKPGA | increase in EGFP expression | 
EF1α-D-SacII promoter: EF1α promoter from which an internal SacII fragment was deleted (nucleic acid) DNA: GTGAGGCTCCGGTGCCCGTCAGTGGGCAGAGCGCACATCGCCCACAGTCCCCGAGAAGTTGGGGGGAGGGGTCGGCAATTGAACCGGTGCCTAGAGAAGGTGGCGCGGGGTAAACTGGGAAAGTGATGTCGTGTACTGGCTCCGCCTTTTTCCCGAGGGTGGGGGAGAACCGTATATAAGTGCAGTAGTCGCCGTGAACGTTCTTTTTCGCAACGGGTTTGCCGCCAGAACACAGGTAAGTGCCGTGTGTGGTTCCCGCGGGCGGCGACGGGGCCCGTGCGTCCCAGCGCACATGTTCGGCGAGGCGGGGCCTGCGAGCGCGGCCACCGAGAATCGGACGGGGGTAGTCTCAAGCTGGCCGGCCTGCTCTGGTGCCTGGCCTCGCGCCGCCGTGTATCGCCCCGCCCTGGGCGGCAAGGCTGGCCCGGTCGGCACCAGTTGCGTGAGCGGAAAGATGGCCGCTTCCCGGCCCTGCTGCAGGGAGCTCAAAATGGAGGACGCGGCGCTCGGGAGAGCGGGCGGGTGAGTCACCCACACAAAGGAAAAGGGCCTTTCCGTCCTCAGCCGTCGCTTCATGTGACTCCACGGAGTACCGGGCGCCGTCCAGGCACCTCGATTAGTTCTCGACCTTTTGGAGTACGTCGTCTTTAGGTTGGGGGGAGGGGTTTTATGCGATGGAGTTTCCCCACACTGAGTGGGTGGAGACTGAAGTTAGGCCAGCTTGGCACTTGATGTAATTCTCCTTGGAATTTGCCCTTTTTGAGTTTGGATCTTGGTTCATTCTCAAGCCTCAGACAGTGGTTCAAAGTTTTTTTCTTCCATTTCAGGTGTCGTGA |  | Near equivalent inducton of EGFP expression
